In patent publication US7005419 (US Dept. of Health and Human Services, dated 2006):

Experiments:
[1] = target: T1, Cdc2 (human, UniProt P06493 1-297); experiment: co-immunoprecipitation with anti-Cdc2 from transfected HCT116 cells, anti-HA Western blot
T1 construct: Endogenous cellular protein; also called cellular Cdc2; Cdc2 polypeptide
Method: (§1) The immunoprecipitates were then analyzed by Western blot with anti-HA antibody.

[2] = target: T2, p21^Cip1/Wafl (human, UniProt P38936 1-164, limits assumed); experiment: co-immunoprecipitation with anti-p21 from transfected HCT116 cells, anti-HA Western blot
T2 construct: Both are written as one molecule; also called p21^wafl
Method: as §1

[3] = target: T3, PCNA (human, UniProt P12004 1-261); experiment: co-immunoprecipitation with anti-PCNA from transfected HCT116 cells, anti-HA Western blot
T3 construct: Endogenous cellular protein
Method: as §1

[4] = target: Cdk2 (human, UniProt P24941 1-298); experiment: GST pull-down from RKO cell lysate, anti-Cdk2 immunoblot
[5] = target: T4, Cyclin B1 (human, UniProt P14635 1-433); experiment: GST pull-down from RKO cell lysate, anti-cyclin B1 immunoblot
T4 construct: Endogenous cellular protein
T4 sequence (P14635 whole entry): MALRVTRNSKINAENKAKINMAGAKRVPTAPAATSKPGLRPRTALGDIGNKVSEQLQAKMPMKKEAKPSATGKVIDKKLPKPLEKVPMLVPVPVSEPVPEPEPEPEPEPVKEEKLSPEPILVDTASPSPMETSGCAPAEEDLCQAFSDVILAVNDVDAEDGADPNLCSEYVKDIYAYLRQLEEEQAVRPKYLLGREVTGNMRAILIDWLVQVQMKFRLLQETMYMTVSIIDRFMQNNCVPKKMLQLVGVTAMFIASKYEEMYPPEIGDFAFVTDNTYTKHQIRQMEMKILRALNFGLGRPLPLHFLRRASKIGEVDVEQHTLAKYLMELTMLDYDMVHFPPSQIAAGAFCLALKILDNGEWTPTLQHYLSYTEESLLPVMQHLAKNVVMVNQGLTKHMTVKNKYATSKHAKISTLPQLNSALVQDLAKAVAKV

T1 sequence (P06493 whole entry): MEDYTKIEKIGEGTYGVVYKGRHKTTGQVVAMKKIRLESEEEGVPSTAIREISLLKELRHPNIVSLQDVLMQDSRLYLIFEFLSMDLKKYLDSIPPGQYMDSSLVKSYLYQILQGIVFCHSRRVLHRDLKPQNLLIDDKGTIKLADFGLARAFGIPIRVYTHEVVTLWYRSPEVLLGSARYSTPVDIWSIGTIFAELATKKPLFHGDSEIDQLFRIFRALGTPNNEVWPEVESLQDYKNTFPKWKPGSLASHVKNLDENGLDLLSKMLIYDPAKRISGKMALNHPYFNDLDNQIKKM
T3 sequence (P12004 whole entry): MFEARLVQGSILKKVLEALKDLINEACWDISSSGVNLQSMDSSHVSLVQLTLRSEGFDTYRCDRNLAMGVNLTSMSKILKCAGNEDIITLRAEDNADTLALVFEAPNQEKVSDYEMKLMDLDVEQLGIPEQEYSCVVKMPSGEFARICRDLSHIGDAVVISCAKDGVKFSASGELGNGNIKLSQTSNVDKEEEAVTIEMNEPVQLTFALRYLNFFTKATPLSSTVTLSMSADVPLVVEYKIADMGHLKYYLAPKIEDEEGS
T2 sequence (P38936 whole entry): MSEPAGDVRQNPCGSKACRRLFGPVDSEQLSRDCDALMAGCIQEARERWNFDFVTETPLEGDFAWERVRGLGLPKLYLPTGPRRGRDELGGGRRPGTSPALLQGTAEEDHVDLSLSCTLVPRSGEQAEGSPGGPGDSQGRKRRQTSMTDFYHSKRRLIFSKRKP

Binder	binding result [1]	binding result [2]	binding result [3]	binding result [4]	binding result [5]
GADD45 deletion mutant del50-76 (HA-tagged) (other, not shown: small tags and cut ends, The junction is not described) MTLEEFSAGEQKTERMDKVGDALEEVLSKALSQRTITVGVYEAAKLLNVLIQAFCCENDINILRVSNPGRLAELLLLETDAGPAASEGAEQPPDLHCVLVTNPHSSQWKDPALSQLICFCRESRYMDQWVPVINLPER	no binding	no binding	no binding	–	–
glutathione-S-transferase (GST)/GADD45 fusion protein (other, GADD45 insert was amplified from pHul45B2 and cloned XhoI/NotI into pGEX4T; also called GST-tagged GADD45; not shown: Glutathione-S-transferase encoded by the pGEX4T vector (Pharmacia)) TLEEFSAGEQKTERMDKVGDALEEVLSKALSQRTITVGVYEAAKLLNVDPDNVVLCLLAADEDDDRDVALQIHFTLIQAFCCENDINILRVSNPGRLAELLLLETDAGPAASEGAEQPPDLHCVLVTNPHSSQWKDPALSQLICFCRESRYMDQWVPVINLPER	–	–	–	no binding (tested: 100 ng)	no binding (tested: 100 ng)
